# In article PMC4318453:
# B1: BKPyV agnoprotein, purified full-length (natural protein)
# chain: MVLRQLSRQASVKVGKTWTGTKKRAQRIFIFILELLLEFCRGEDSVDGKNKSTTALPAVKDSVKDS
# Tests used:
# heat shock protein 40 = heat shock protein 40 (UniProt P25685); assay: FRET or BRET; positive control of the FRET experiment, results not shown
# [1] = biological target: Proliferating cell nuclear antigen, purified recombinant (UniProt P12004)
# Chain of UniProt P25685 (P25685 whole entry): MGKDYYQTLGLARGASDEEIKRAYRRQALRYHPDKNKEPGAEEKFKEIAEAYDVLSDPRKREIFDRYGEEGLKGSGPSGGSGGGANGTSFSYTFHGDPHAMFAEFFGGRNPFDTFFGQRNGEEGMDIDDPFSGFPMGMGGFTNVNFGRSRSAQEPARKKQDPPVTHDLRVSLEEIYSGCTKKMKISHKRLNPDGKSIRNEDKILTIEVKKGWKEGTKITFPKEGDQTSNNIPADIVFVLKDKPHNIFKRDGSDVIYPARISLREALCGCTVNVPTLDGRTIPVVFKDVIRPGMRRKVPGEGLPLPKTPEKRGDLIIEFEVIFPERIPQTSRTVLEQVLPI
Molecule,FRET efficiency (heat shock protein 40) [%],"PCNA:pol δ-mediated in vitro DNA synthesis (polydA/oligodT, [3H]dTTP incorporation) with increasing amounts of agnoprotein [1] [%]"
mitogen-activated protein kinase MK5 (from UniProt Q8IW41 1-473) (enzyme),15,
B1,,50
